{"source": "the Human Domainome abundance scans (Beltran et al. 2025)", "parents": {"B1": {"name": "POU domain, class 3, transcription factor 1, residues 247 to 324; numbered along this chain, Q03052 (parent)", "chain": "EDAPSSDDLEQFAKQFKQRRIKLGFTQADVGLALGTLYGNVFSQTTICRFEALQLSFKNMCKLKPLLNKWLEETDSSS"}}, "note": "± gives the uncertainty stated by the source."}
{"variants_of": "B1", "test": "abundance fitness (aPCA) (normalised: wild type 0, dead -1); higher = more abundant; growth selection in yeast, the domain comes from the species named", "settings": "Homo sapiens"}
{"variant": "EDAPTSDDLEQFAKQFKQRRIKLGFTQADVGLALGTLYGNVFSQTTICRFEALQLSFKNMCKLKPLLNKWLEETDSSS", "abundance fitness": "0.09 ± 0.081"}
{"variant": "EDAPKSDDLEQFAKQFKQRRIKLGFTQADVGLALGTLYGNVFSQTTICRFEALQLSFKNMCKLKPLLNKWLEETDSSS", "abundance fitness": "0.07 ± 0.074"}
{"variant": "EDAPPSDDLEQFAKQFKQRRIKLGFTQADVGLALGTLYGNVFSQTTICRFEALQLSFKNMCKLKPLLNKWLEETDSSS", "abundance fitness": "0.067 ± 0.097"}
{"variant": "EDAPNSDDLEQFAKQFKQRRIKLGFTQADVGLALGTLYGNVFSQTTICRFEALQLSFKNMCKLKPLLNKWLEETDSSS", "abundance fitness": "0.119 ± 0.13"}
{"variant": "EDAPHSDDLEQFAKQFKQRRIKLGFTQADVGLALGTLYGNVFSQTTICRFEALQLSFKNMCKLKPLLNKWLEETDSSS", "abundance fitness": "0.283 ± 0.1"}
{"variant": "EDAPQSDDLEQFAKQFKQRRIKLGFTQADVGLALGTLYGNVFSQTTICRFEALQLSFKNMCKLKPLLNKWLEETDSSS", "abundance fitness": "0.042 ± 0.097"}
{"variant": "EDAPISDDLEQFAKQFKQRRIKLGFTQADVGLALGTLYGNVFSQTTICRFEALQLSFKNMCKLKPLLNKWLEETDSSS", "abundance fitness": "-0.234 ± 0.17"}
{"variant": "EDAPFSDDLEQFAKQFKQRRIKLGFTQADVGLALGTLYGNVFSQTTICRFEALQLSFKNMCKLKPLLNKWLEETDSSS", "abundance fitness": "-0.143 ± 0.17"}
{"variant": "EDAPASDDLEQFAKQFKQRRIKLGFTQADVGLALGTLYGNVFSQTTICRFEALQLSFKNMCKLKPLLNKWLEETDSSS", "abundance fitness": "0.048 ± 0.062"}
{"variant": "EDAPLSDDLEQFAKQFKQRRIKLGFTQADVGLALGTLYGNVFSQTTICRFEALQLSFKNMCKLKPLLNKWLEETDSSS", "abundance fitness": "0.129 ± 0.051"}
{"variant": "EDAPRSDDLEQFAKQFKQRRIKLGFTQADVGLALGTLYGNVFSQTTICRFEALQLSFKNMCKLKPLLNKWLEETDSSS", "abundance fitness": "0.164 ± 0.046"}
{"variant": "EDAPESDDLEQFAKQFKQRRIKLGFTQADVGLALGTLYGNVFSQTTICRFEALQLSFKNMCKLKPLLNKWLEETDSSS", "abundance fitness": "0.111 ± 0.071"}
{"variant": "EDAPWSDDLEQFAKQFKQRRIKLGFTQADVGLALGTLYGNVFSQTTICRFEALQLSFKNMCKLKPLLNKWLEETDSSS", "abundance fitness": "-0.206 ± 0.08"}
{"variant": "EDAPMSDDLEQFAKQFKQRRIKLGFTQADVGLALGTLYGNVFSQTTICRFEALQLSFKNMCKLKPLLNKWLEETDSSS", "abundance fitness": "0.141 ± 0.078"}
{"variant": "EDAPCSDDLEQFAKQFKQRRIKLGFTQADVGLALGTLYGNVFSQTTICRFEALQLSFKNMCKLKPLLNKWLEETDSSS", "abundance fitness": "0.113 ± 0.093"}
{"variant": "EDAPYSDDLEQFAKQFKQRRIKLGFTQADVGLALGTLYGNVFSQTTICRFEALQLSFKNMCKLKPLLNKWLEETDSSS", "abundance fitness": "-0.062 ± 0.15"}
{"variant": "EDAPDSDDLEQFAKQFKQRRIKLGFTQADVGLALGTLYGNVFSQTTICRFEALQLSFKNMCKLKPLLNKWLEETDSSS", "abundance fitness": "0.388 ± 0.087"}
{"variant": "EDAPVSDDLEQFAKQFKQRRIKLGFTQADVGLALGTLYGNVFSQTTICRFEALQLSFKNMCKLKPLLNKWLEETDSSS", "abundance fitness": "0.045 ± 0.062"}
{"variant": "EDAPSSPDLEQFAKQFKQRRIKLGFTQADVGLALGTLYGNVFSQTTICRFEALQLSFKNMCKLKPLLNKWLEETDSSS", "abundance fitness": "-0.642 ± 0.23"}
{"variant": "EDAPSSSDLEQFAKQFKQRRIKLGFTQADVGLALGTLYGNVFSQTTICRFEALQLSFKNMCKLKPLLNKWLEETDSSS", "abundance fitness": "-0.477 ± 0.13"}
{"variant": "EDAPSSCDLEQFAKQFKQRRIKLGFTQADVGLALGTLYGNVFSQTTICRFEALQLSFKNMCKLKPLLNKWLEETDSSS", "abundance fitness": "-0.316 ± 0.15"}
{"variant": "EDAPSSRDLEQFAKQFKQRRIKLGFTQADVGLALGTLYGNVFSQTTICRFEALQLSFKNMCKLKPLLNKWLEETDSSS", "abundance fitness": "-0.085 ± 0.058"}
{"variant": "EDAPSSFDLEQFAKQFKQRRIKLGFTQADVGLALGTLYGNVFSQTTICRFEALQLSFKNMCKLKPLLNKWLEETDSSS", "abundance fitness": "-0.616 ± 0.22"}
{"variant": "EDAPSSYDLEQFAKQFKQRRIKLGFTQADVGLALGTLYGNVFSQTTICRFEALQLSFKNMCKLKPLLNKWLEETDSSS", "abundance fitness": "0.101 ± 0.12"}
{"variant": "EDAPSSNDLEQFAKQFKQRRIKLGFTQADVGLALGTLYGNVFSQTTICRFEALQLSFKNMCKLKPLLNKWLEETDSSS", "abundance fitness": "-0.305 ± 0.36"}
{"variant": "EDAPSSEDLEQFAKQFKQRRIKLGFTQADVGLALGTLYGNVFSQTTICRFEALQLSFKNMCKLKPLLNKWLEETDSSS", "abundance fitness": "0.089 ± 0.08"}
{"variant": "EDAPSSADLEQFAKQFKQRRIKLGFTQADVGLALGTLYGNVFSQTTICRFEALQLSFKNMCKLKPLLNKWLEETDSSS", "abundance fitness": "-0.142 ± 0.081"}
{"variant": "EDAPSSQDLEQFAKQFKQRRIKLGFTQADVGLALGTLYGNVFSQTTICRFEALQLSFKNMCKLKPLLNKWLEETDSSS", "abundance fitness": "-0.138 ± 0.15"}
{"variant": "EDAPSSVDLEQFAKQFKQRRIKLGFTQADVGLALGTLYGNVFSQTTICRFEALQLSFKNMCKLKPLLNKWLEETDSSS", "abundance fitness": "-0.181 ± 0.071"}
{"variant": "EDAPSSWDLEQFAKQFKQRRIKLGFTQADVGLALGTLYGNVFSQTTICRFEALQLSFKNMCKLKPLLNKWLEETDSSS", "abundance fitness": "-0.427 ± 0.11"}
{"variant": "EDAPSSMDLEQFAKQFKQRRIKLGFTQADVGLALGTLYGNVFSQTTICRFEALQLSFKNMCKLKPLLNKWLEETDSSS", "abundance fitness": "-0.153 ± 0.1"}
{"variant": "EDAPSSKDLEQFAKQFKQRRIKLGFTQADVGLALGTLYGNVFSQTTICRFEALQLSFKNMCKLKPLLNKWLEETDSSS", "abundance fitness": "0.358 ± 0.14"}
{"variant": "EDAPSSHDLEQFAKQFKQRRIKLGFTQADVGLALGTLYGNVFSQTTICRFEALQLSFKNMCKLKPLLNKWLEETDSSS", "abundance fitness": "-0.361 ± 0.37"}
{"variant": "EDAPSSTDLEQFAKQFKQRRIKLGFTQADVGLALGTLYGNVFSQTTICRFEALQLSFKNMCKLKPLLNKWLEETDSSS", "abundance fitness": "-0.073 ± 0.11"}
{"variant": "EDAPSSGDLEQFAKQFKQRRIKLGFTQADVGLALGTLYGNVFSQTTICRFEALQLSFKNMCKLKPLLNKWLEETDSSS", "abundance fitness": "-0.045 ± 0.057"}
